T1: decoy peptide (Tn (GalNac) antigen or sialyl Tn (Neu5Acα2-6GalNAc) antigen modifications on some of the S/T residues)
T1 construct: also called glycosylated decoy peptide
T1 peptide: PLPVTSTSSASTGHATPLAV

B1: MUC1 gB06 (antibody, V domains shown)
VH: EVQLVQSGAEVKKPGATVKISCKVSGYTFTDHTMHWIKQRPGKGLEWMGYFYPRDDSTNYNEKFKGRVTLTADKSTDTAYMELSSLRSEDTAVYYCARGLRYALDYWGQGTLVTVSS
VL: EIVLTQSPATLSLSPGERATLSCRASSSVSSSYLYWYQQKPGQAPRLWIYGTSNLASGVPARFSGSGSGTDYTLTISSLEPEDAAVYYCHQYAWSPPTFGQGTKLEIK
notes: Monoclonal antibody; also called B06 antibody; anti-MUC1 antibody B06
B2: MUC1 G12 (antibody, V domains shown)
VH: EVQLVQSGAEVKKPGATVKISCKVSGYTFTDHTMHWIKQRPGKGLEWMGYFYPRDDSTNYNEKFKGRVTLTADKSTDTAYMELSSLRSEDTAVYYCARGLRYALDYWGQGTLVTVSS
VL: EIVLTQSPATLSLSPGERATLSCRASSSVGSSNLYWYQQKPGQAPRLWIYRSTKLASGVPARFSGSGSGTDYTLTISSLEPEDAAVYYCHQYRWSPPTFGQGTKLEIK
notes: Monoclonal antibody; It was detected with an anti-human Fc secondary, and DSF reports CH2 and Fab regions
B3: MUC1 H02 (antibody, V domains shown)
VH: EVQLVQSGAEVKKPGATVKISCKVSGYTFTDHTMHWIKQRPGKGLEWMGYFYPRDDSTNYNEKFKGRVTLTADKSTDTAYMELSSLRSEDTAVYYCARGLRYALDYWGQGTLVTVSS
VL: EIVLTQSPATLSLSPGERATLSCRASSSVSSSYLYWYQQKPGQAPRLWIIGTSNLASGVPARFSGSGSGTDYTLTISSLEPEDAAVYYCHQYSWSPPTFGQGTKLEIK
notes: as for B2

Experiments:
Test in all cases: ELISA, peptide coated on plate, anti-Fc HRP detection
[1] = target: T2, recombinant 60 mer MUC1 non-glycosylated-biotin (biotin conjugated to the N-terminus)
T2 construct: Not glycosylated; also called 60mer MUC1 non-glycosylated peptide
T2 sequence (peptide, as listed by the source): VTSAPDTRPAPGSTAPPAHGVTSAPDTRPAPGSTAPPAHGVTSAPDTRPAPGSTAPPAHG
Method: (§1) MUC1 ELISA: Antigens were coated directly on a Streptavidin (Pierce, 15500) or Maxisorp (VWR, 62409-024) 96-well plate at 100ng/well in PBS. Coated plates were incubated at 4° C. overnight. The plates were blocked with casein blocking buffer (Thermo Fisher, 37528) and washed with PBS-Tween-20. Antibodies were serially diluted in PBS, added to the coated wells and incubated for 1h at room temperature with shaking. To test for stickiness, antibodies were also added to uncoated, blocked wells. Peroxidase (HRP)-conjugated anti-Fc secondary (Jackson Immunoresearch, #109-035-098) was used for detection, followed by a […] substrate (Thermo Fisher, 34028) and H2S04 quench. Absorbance was read at 450 nm on a Molecular Devices plate reader.

decoy peptide = target: T1, decoy peptide
Method: as §1

[2] = target: T3, recombinant 20 mer MUC1 glycosylated-biotin (Tn (GalNac) antigen or sialyl Tn (Neu5Acα2-6GalNAc) antigen modifications on some of the S/T residues; biotin conjugated to the N-terminus)
T3 construct: also called 20mer glycosylated MUC1 peptide
T3 sequence (peptide, as listed by the source): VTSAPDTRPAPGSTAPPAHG
Method: as §1

Row | Binder | binding result [1] | binding result (decoy peptide) | binding result [2]
1 | B1 | no binding | no binding | binds
2 | B2 | no binding | no binding | binds
3 | B3 | no binding | no binding | binds
